Values belong to the binder of their own block, whether it stands above or below them.
Legend:
[1] = target: T1, yeast-displayed hVISTA (human); experiment: flow cytometry on cells; hVISTA (Phe33-Ala194) displayed on yeast, titrations of soluble antibody in PBS/BSA pH 7.4, 4 °C, 12 h; conditions: one partner purified
T1 construct: also called wild-type hVISTA; WT VISTA

[2] = target: T1, yeast-displayed hVISTA; experiment: flow cytometry on cells; hVISTA (Phe33-Ala194) displayed on yeast, titrations of soluble antibody in PBS/BSA pH 6.0, 4 °C, 12 h; conditions: one partner purified

T1 sequence (chain, as listed by the source): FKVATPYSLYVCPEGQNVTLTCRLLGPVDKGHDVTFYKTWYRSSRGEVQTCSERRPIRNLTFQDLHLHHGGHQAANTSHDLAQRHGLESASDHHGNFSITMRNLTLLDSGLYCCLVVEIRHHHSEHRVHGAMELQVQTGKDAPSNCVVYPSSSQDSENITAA

Kd [1]: ~3 nM
B1: VSTB112 (antibody, V domains shown)
VH: QVQLVQSGAEVKKPGSSVKVSCKASGGTFSSYAISWVRQAPGQGLEWMGGIIPIFGTANYAQKFQGRVTITADESTSTAYMELSSLRSEDTAVYYCARSSYGWSYEFDYWGQGTLVTVSS
VL: DIQMTQSPSSLSASVGDRVTITCRASQSIDTRLNWYQQKPGKAPKLLIYSASSLQSGVPSRFSGSGSGTDFTLTISSLQPEDFATYYCQQSAYNPITFGQGTKVEIK
notes: human IgG1 heavy chain; human kappa light chain; full human IgG1; also called CI-8993 (Janssen/ImmuNext, Curis); source: Expi293 cells, purified (protein A)

Kd [2]: ~3 nM
B2: BMS767 (antibody, V domains shown)
VH: EVQLVESGGGLVQPGKSLRLSCAASGFTLEDYAMHWVRQAPGKGLEWVSGIDWNSENIGYADSVKGRFTISRDNAKNSLYLQMNSLRTEDTALYYCAKVPGYSGGWIDAEDDWGQGTMVTVSS
VL: not shown
notes: human IgG1 heavy chain; human kappa light chain; full human IgG1; also called BMS (Bristol Myers Squibb); source: Expi293 cells, purified (protein A)
